Measured values published in the nanobody polyreactivity screen of Harvey et al. (2022).

Test: yeast display, Sf9 membrane polyspecificity reagent, FACS + sequencing; frameworks hold sequencing errors
Outline: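 Galactose induction of a Saccharomyces cerevisiae BJ5465 synthetic nanobody display library ran 36–48 hours. The cells were then stained for 1 hour at 4 °C with 10% biotinylated, detergent-solubilized Sf9 membrane reagent, pulled down on streptavidin microbeads and FACS-sorted into low and high (top ~1%) gates on expression and reagent-binding fluorescence. Labels for polyreactivity follow the gate of origin.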

Sequence	polyreactivity (PSR sort gate)
QVQLVESGGGLVQAGGSLRLSCAASGIIFRKNAMGWYRQAPGKERELVAAISSTGASTNYADSVKGRFTISRDNAKNTVYLQMNSLKPEDTAVYYCAASRTRYWKYDYWGQGTQVTVSS	high polyreactivity
QVQLVESGGGLVQAGGSLRLSCAASGLTFTPYTMGWYRQAPGKERELVAAITSSAARTYYADSVKGRFTISRDKAKNTVYFQMNSLKPEDTAVYYCNRYRLPSGRYEYWGQGTQVTVSS	high polyreactivity
QVQLVESGGGLVQAGGSLRLSCAASGSIFRAYAMGWYRQAPGKERELVAAITWSGGRTFYADSVKGRFTISRDNAKNTVYLQMNSLKPEDTAVYYCAAFVYQRGRIYDYWGQGTQVTVSS	high polyreactivity
QVQLVESGGGLVQAGGSLRLSCASSGLTFYKNAMGWYRQAPGKERELVAVISSSGGSTYYADSVKGRFTISRDNAKNTVYLQMNSLKPEDTAVYYGGRDLYTEYRWGRLTYDYWGHGTQVTVSS	low polyreactivity
QVQLVESGGGLVQAGGSLRLSCAASGSIFITYAMGWYRQAPGKERELVAAIRDSGDRTYYADSVKGRFTISRDKAKNTDYLQKNSLKPEDTAVYYCNARWQEPLKYDYWGQGTQVTVSS	low polyreactivity
QVQLVESGGGLVQAGGSLRLSCAASGRIFRYNTMGWYRQAHGKERELVAAIDRGSSTNYADSVKGRFTISRDNAKNTVYLQMNSLKPEDTAVYYCAARVFRPYGSLYDYWGQGTQVTVSS	high polyreactivity
QVQLVESGGGLVQAGGSLRLSCAASGRIFNGYPIGWYIQAPGKEREFVATISRSGGCTYYADSVKGRFTISRDNAKNTVYLQMISLKPEDTAVYYCAKTYPAKWEYDYWGQGTQVTVSS	low polyreactivity
QVQLVESGGGLVQAGGSLRLSCAASGITFALNAMGWYRQAPGKERELVAAISWSGDSTYYADSVKGRFTISRDNAKNTVYLQMNSLKPEDTAVYYCAAVAYLNWTPHYYWGQGTQVTVSS	low polyreactivity
QVQLVESGGGLVQAGGSLRLSCAASGSIFAKNAMGWYRQAPGKERELVAAISSSGGRTYYADSVKGRFTISRDNAKNTVYLQMNSLKPEDTAVYYCAADLRYIYWSYYYWGQGTQVTVSS	low polyreactivity
QVQLVESGGGLVQAGGSLRLSCAASGNILASNGMGLYRQAPGKERELVAAITYSGGSTYYADSVKGRFTISRDNAKNTVYLQMNSLKPEDTAVYDCAARYYYGRRYDYWGQGTQVTVSS	low polyreactivity
QVQLVESGGGLVQAGGSLRLSCAASGLTFIEYAMGWYRQAPGKERELVAAISSGGRTYYADSVKGRFTISRDNPKNTVYLQMNSLKPEDTAVYYCNDRGYRRWYNYWGQGTQVTVSS	high polyreactivity
QVQLVESGGGLVQAGGSLRLSCAASGRTLYYYAMGWYRQAPGKEMDLVASISRGGNTNYADSVKGRFTISRDNAKNSVYLQMYSLKPEDTAVYYCAAQYSPYSFSQYVYWGQGTQVTVSS	high polyreactivity
QVQLVESGGGLVQAGGSLRLSCAASGYTFPRYAMGWYRQAPGKERELVATINWTGSNTYADSVKGRFTISRDNAKNTVYLQMNSLKPEDTAVYYCAKDSWNVRSGRYNYWGQGTQVTVSS	low polyreactivity
QVQLVESGGGLVQAGGSLRLSCAASGSIFLIYAMGWYRQAPGKERELVAAISSGGSTYYADSVKGRFTISRDNAKNTVYLQMNSLKPEDTAVYYCAARYVERHTDYYYWGQGTQVTVSS	low polyreactivity
QDQLVESGGGLVQAGGSLRLSCAASGRTFPRNAMGWYRQAPGKERELVAAISSTGDSTYYADSVKGRFTISRDNAKNTVYLQMNSLKPEDTAVYYCHYPYDYWGQGTQVTVSS	low polyreactivity
QVQLVESGGGLVQAGGSLSLSCAASGRNFVINALGWYRQAPGTERELVARIRSGGSTNYADSVKGRFTISRDNAKNTVYLQMNSLKPEDTAVYYCAAYLRTERYGYWGQGTQVTVSS	high polyreactivity
QVQLVESGGALVQAGGSLRLSCAASGRTFYFYTMGWYRQAPGKERDLVAAISWSGGSTYYADSVKGRFTISRDTAKNNFYLQMKRLKPEDTAVYYCAASSRWEQSKDQFYYWGQGTHVTVSS	low polyreactivity
QVQLVESGGGLVQAGGSLRLSCAASGSTISSYAMGWYRPAPGKERELVAANTSGGSTYYADSLKGRFTISRDNAKNSVSLQMNSLKPEDTAVYYCDLGSTTMDYWGQGTQVTVSS	low polyreactivity
QVQLVESGGGLVQAGGSIRLSCAASGSTFGGNAMGWYRQAPGKERELVAAITGTGGRTFYADSVKGRFTISRDNAKNTVYLQMNSLKPEDTAVYFCAADSYIYSVNYWGQGTQVTVSS	low polyreactivity
QVQLVESGGGVVQAGGILRFSCAASGRTFAPDAMGWYRQAPGKERELDAAITNGGSTTYADSVKGRFTISRDNAKNTVYLHMNSLNPEDTAVYYCAADIVSSTDYPFDYWGQGTQVNVSS	low polyreactivity

Sequence	polyreactivity (PSR sort gate)
QVQLVESGGGLVQAGGSLRLSCAASGRIFTAYYAMGWYRQAPGKERELVASISSSGTYTYADSVKGRFTISRDNAKNTVYLQMNSLKPEDTAVYYCATRKLRTRRYDYGYCGQGTQVTVSS	low polyreactivity
QVQLVESGGGLVQAGGSLRLICAASGRIFGANAMGWYIQAPGKERELVAAISRTGGSKYYADSVKGRFTISRDNAKNTVYLQMNSLKPEDTAVYYCNAVYRYAHPMEYWGQGTQVTVSS	high polyreactivity
QVQLVESGGGLVQAGGSLRLSCAASGIIFGRYAMGWYRQAPGKERELVAVINWSGDSTYYADSVKGRFTISRDNAKNTVYLQMNSLKPEDTAVYYCAALNYKGRYRQYYWGQGTQVTVSS	high polyreactivity
QVQLVESGGGLVQAGGSLRLSCAASGPTFYKYAMGWYRQAPGKERELVATITRRGGSTYYADSVKGRFTISRDNAKNTVYLQMNSLKPEDTAVYYCAKEIFLKGPDGHDYWGQGTQVTVSS	low polyreactivity
FVQAGGSLRLSCAASGFIFGVYDMGWYRQAPGKERELVAAIDSVGSTYYADSVKGRFTISRDNAKNTVYLQMNSLNPEDTAVYYCAKDGSYQAYGYWGQGTQVTVSS	low polyreactivity
QVQLVESGGGLVQAGGSLRLSCAASGRIFYKYAMGWYRQAPGKERELVAVINRGGTTYYADSVKGRFTISRDNGKNTVYLQMNSLKPDDTAVYYCNTVADYRRFGYWGQGTQVTVSS	high polyreactivity
QVQLVDSVRGLVQAGGSLRLSCAASGSIFNQNAMGWYRQAPGKERELVAVISSGGRTSYADSVKGRFTISRDNAKNTVYLQMNSLKPEDTAVYYCAADYGDRYWDYGYWGQGTQVTVSS	low polyreactivity
QVQHVESGGGLVQAGGSLRLSCAASGYIFYTYAMGWYRQAPGKERELVAGINRGDSTNYADSVKGRFTISRDNAKNTVYLQMNSLKPEDTAVYYCNARQRTYYRTHRIRHKGNGYWGQGTQVTVSS	low polyreactivity
QVQLVESGGGLVQAGGSLRLSCAASGRTFTHYAMGWYRQAPGKERELVAAISWSGGRTYYADSVKGRFTISRDNAKNTVYLQMNSLKPEDTAVYYCAADAFRGFYWGQGTQVTVSS	high polyreactivity
QVQLVESGGGLVQAGGSLRLSCAASGRTFYYYVKGWDRQAPGKERELVAAITIRGGSTYYADSVKGRFTNSRDNAKNTVYLQMNSLKPEDTAVYYCNARGGSSTYGNYYWGQGTQVTVSS	low polyreactivity
QVQLVESGGGLVQAGGSLRLSCAASGGTFQWNAMGWYRQAPGNERELVAAITSGGRTNYADSVKGRFTISRDNAKTTVSFQLNSLKPEDTAVYYCAATAWDRYIDYDYWGQGTQETVSS	high polyreactivity
QVQLQESGGGLVQAGGSLRLSCAASGTISQEDWMGWYRQAPGKEREFVAPIGLGSNTNSADSLKGRFTISRDNAKNTVYLHMNSLKPEDTAVYYCAVCVWQYSDHVYRGQGTQVTVSS	low polyreactivity
QVQLVESGGGLVQAGGSLRLSCADSGFTYAYYVMGWYRQAPGKERELVAAISISGGRTYYADSVKGRFTISRDNAKNTVYLQMNSLKPEDTAVYYCAADRRTDGHDYWGQGTQVTVSS	high polyreactivity
QVQLVESGGGLVQAGGSLRLSCAASGSTFVGNAMGWYRQAPGKERELVAAITWSGGTYYADSVKGRFTISRDNAKNTVYLQMNSLKPEDTAVYYCNAEWRVYPDLYDYWGQGTQVTVSS	low polyreactivity
QVQLVESGGGLVQAGGSLRLSCAASGYTFSFYAMGWYIQAPGKERELVATISWRGGSTYYADSVKGRFTISRDNAKNTVYLQMNSLKPEDTAVYYCNIVDKTGSKMDYWGQGTQVTVSS	high polyreactivity
QVQLVESGGGLVQAGGSLRLSCAASGRIFVYYPMGWYRQAPGIERELVAAINAGGSTNYADSVKGRFTISRDNAKNTVYLQMNSLKPEDTAVYYCAAVRRSRYSYRGYYWGQGTQVTVSS	high polyreactivity
QVQLVESGGGLVQAGGSLRLSCAASGFIFWYYAMGWYRQAPGKERELVAAITSRGGSTYYADSVKGRFTISSDNAKNTDYLQMNSLKPEDTAVYYCAAKFPSRFYSFVQYYYWGQGTQVTVSS	high polyreactivity
QVQLVESGGGLVQAGGSLRLSCAASGSIFRIYAMGWYRPAPGKERELVAAISRGGGSTYYADSVKGRFTISRDNAKNTVYLQMNSLKPEDTAVYYCAARSPYRYYYWGQGTQVTVSS	high polyreactivity
QVQLVESGGGLVQAGGSLRLSCAASGIIFRYYTMGWYRQAPGKERELVAAISWGGGSTYYADSVKGRFTISRDYAKNTVYLQMNSLKPEDTAVYYCAAEGLTYYNYREWLYYYWGQGTQVTVSS	high polyreactivity
QVQLVESGGGLVQAGGSLRLSCAASGSTFYAYAMGWYRQAPGKERELVAGISKRVGRTYYADSVKGRFTISRDNAKNTVYLQMNSLKPEDTAVYYCNADVYAYPATWLDYWGQGTQVTVSS	high polyreactivity
